2 proteins from publication PMC7205012 (Neuron, 2019) can be followed below.

This data set deals with the molecule itself. The data set can be described thus: cryo-EM structure.

B1: wild type human TRPA1 (transient receptor potential channel subfamily A member 1) (natural protein, UniProt O75762 1-1119, looked up)
chain: MKRSLRKMWRPGEKKEPQGVVYEDVPDDTEDFKESLKVVFEGSAYGLQNFNKQKKLKRCDDMDTFFLHYAAAEGQIELMEKITRDSSLEVLHEMDDYGNTPLHCAVEKNQIESVKFLLSRGANPNLRNFNMMAPLHIAVQGMNNEVMKVLLEHRTIDVNLEGENGNTAVIIACTTNNSEALQILLKKGAKPCKSNKWGCFPIHQAAFSGSKECMEIILRFGEEHGYSRQLHINFMNNGKATPLHLAVQNGDLEMIKMCLDNGAQIDPVEKGRCTAIHFAATQGATEIVKLMISSYSGSVDIVNTTDGCHETMLHRASLFDHHELADYLISVGADINKIDSEGRSPLILATASASWNIVNLLLSKGAQVDIKDNFGRNFLHLTVQQPYGLKNLRPEFMQMQQIKELVMDEDNDGCTPLHYACRQGGPGSVNNLLGFNVSIHSKSKDKKSPLHFAASYGRINTCQRLLQDISDTRLLNEGDLHGMTPLHLAAKNGHDKVVQLLLKKGALFLSDHNGWTALHHASMGGYTQTMKVILDTNLKCTDRLDEDGNTALHFAAREGHAKAVALLLSHNADIVLNKQQASFLHLALHNKRKEVVLTIIRSKRWDECLKIFSHNSPGNKCPITEMIEYLPECMKVLLDFCMLHSTEDKSCRDYYIEYNFKYLQCPLEFTKKTPTQDVIYEPLTALNAMVQNNRIELLNHPVCKEYLLMKWLAYGFRAHMMNLGSYCLGLIPMTILVVNIKPGMAFNSTGIINETSDHSEILDTTNSYLIKTCMILVFLSSIFGYCKEAGQIFQQKRNYFMDISNVLEWIIYTTGIIFVLPLFVEIPAHLQWQCGAIAVYFYWMNFLLYLQRFENCGIFIVMLEVILKTLLRSTVVFIFLLLAFGLSFYILLNLQDPFSSPLLSIIQTFSMMLGDINYRESFLEPYLRNELAHPVLSFAQLVSFTIFVPIVLMNLLIGLAVGDIAEVQKHASLKRIAMQVELHTSLEKKLPLWFLRKVDQKSTIVYPNKPRSGGMLFHIFCFLFCTGEIRQEIPNADKSLEMEILKQKYRLKDLTFLLEKQHELIKLIIQKMEIISETEDDDSHCSFQDRFKKEQMEQRNSRWNTVLRAVKAKTHHLEP
modifications: C621 covalently bound to JT010 (TRPA1_(WT-JT010)) or to BITC (TRPA1_(WT-BITC)); N747 glycosylated (two N-acetylglucosamine)
The stoichiometry N is a count of units in the complex or per binding partner. For B1, the “stoichiometry N” value worked out at 4.

B2: human TRPA1 C621S (natural protein, UniProt O75762 1-1119, looked up)
chain: MKRSLRKMWRPGEKKEPQGVVYEDVPDDTEDFKESLKVVFEGSAYGLQNFNKQKKLKRCDDMDTFFLHYAAAEGQIELMEKITRDSSLEVLHEMDDYGNTPLHCAVEKNQIESVKFLLSRGANPNLRNFNMMAPLHIAVQGMNNEVMKVLLEHRTIDVNLEGENGNTAVIIACTTNNSEALQILLKKGAKPCKSNKWGCFPIHQAAFSGSKECMEIILRFGEEHGYSRQLHINFMNNGKATPLHLAVQNGDLEMIKMCLDNGAQIDPVEKGRCTAIHFAATQGATEIVKLMISSYSGSVDIVNTTDGCHETMLHRASLFDHHELADYLISVGADINKIDSEGRSPLILATASASWNIVNLLLSKGAQVDIKDNFGRNFLHLTVQQPYGLKNLRPEFMQMQQIKELVMDEDNDGCTPLHYACRQGGPGSVNNLLGFNVSIHSKSKDKKSPLHFAASYGRINTCQRLLQDISDTRLLNEGDLHGMTPLHLAAKNGHDKVVQLLLKKGALFLSDHNGWTALHHASMGGYTQTMKVILDTNLKCTDRLDEDGNTALHFAAREGHAKAVALLLSHNADIVLNKQQASFLHLALHNKRKEVVLTIIRSKRWDECLKIFSHNSPGNKSPITEMIEYLPECMKVLLDFCMLHSTEDKSCRDYYIEYNFKYLQCPLEFTKKTPTQDVIYEPLTALNAMVQNNRIELLNHPVCKEYLLMKWLAYGFRAHMMNLGSYCLGLIPMTILVVNIKPGMAFNSTGIINETSDHSEILDTTNSYLIKTCMILVFLSSIFGYCKEAGQIFQQKRNYFMDISNVLEWIIYTTGIIFVLPLFVEIPAHLQWQCGAIAVYFYWMNFLLYLQRFENCGIFIVMLEVILKTLLRSTVVFIFLLLAFGLSFYILLNLQDPFSSPLLSIIQTFSMMLGDINYRESFLEPYLRNELAHPVLSFAQLVSFTIFVPIVLMNLLIGLAVGDIAEVQKHASLKRIAMQVELHTSLEKKLPLWFLRKVDQKSTIVYPNKPRSGGMLFHIFCFLFCTGEIRQEIPNADKSLEMEILKQKYRLKDLTFLLEKQHELIKLIIQKMEIISETEDDDSHCSFQDRFKKEQMEQRNSRWNTVLRAVKAKTHHLEP
For the protein B2, the “stoichiometry N” value stood at 4.
